Assay results: patent US20250218531A1 (ABSCI, published 2025)
Numbering of substitutions follows the chain as printed.

B1: De novo trastuzumab HCDR3 variant ARDYDFGLSVGAV (SEQ ID NO: 486) (Fab, V domains shown)
VH: EVQLVESGGGLVQPGGSLRLSCAASGFNIKDTYIHWVRQAPGKGLEWVARIYPTNGYTRYADSVKGRFTISADTSKNTAYLQMNSLRAEDTAVYYCARDYDFGLSVGAVWGQGTLVTVSS
VL: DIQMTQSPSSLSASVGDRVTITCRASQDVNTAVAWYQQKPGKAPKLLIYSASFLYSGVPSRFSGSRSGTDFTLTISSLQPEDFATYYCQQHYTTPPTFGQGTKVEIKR
B2: De novo trastuzumab HCDR3 variant ARGYAYYVAGREY (SEQ ID NO: 493) (Fab, V domains shown)
VH: B1 VH with D99G, D101A, F102Y, G103Y, L104V, S105A, V106G, G107R, A108E, V109Y
VL: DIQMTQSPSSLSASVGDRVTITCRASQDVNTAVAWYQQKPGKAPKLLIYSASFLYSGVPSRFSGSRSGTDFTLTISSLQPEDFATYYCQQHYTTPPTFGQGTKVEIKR
B3: De novo trastuzumab HCDR3 variant ARLGASHGYLYDD (SEQ ID NO: 484) (Fab, V domains shown)
VH: EVQLVESGGGLVQPGGSLRLSCAASGFNIKDTYIHWVRQAPGKGLEWVARIYPTNGYTRYADSVKGRFTISADTSKNTAYLQMNSLRAEDTAVYYCARLGASHGYLYDDWGQGTLVTVSS
VL: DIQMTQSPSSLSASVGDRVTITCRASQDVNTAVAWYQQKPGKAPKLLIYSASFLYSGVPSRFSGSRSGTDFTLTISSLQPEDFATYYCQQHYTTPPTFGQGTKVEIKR
B4: De novo trastuzumab HCDR3 variant ARNYYGAAYYFDY (SEQ ID NO: 495) (Fab, V domains shown)
VH: B3 VH with L99N, G100Y, A101Y, S102G, H103A, G104A, L106Y, Y107F, D109Y
VL: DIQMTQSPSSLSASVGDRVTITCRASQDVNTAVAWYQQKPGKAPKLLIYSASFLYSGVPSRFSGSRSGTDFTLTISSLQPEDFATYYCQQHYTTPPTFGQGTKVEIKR
B5: De novo trastuzumab HCDR3 variant ARSNNWYSYSFQF (SEQ ID NO: 478) (Fab, V domains shown)
VH: B3 VH with L99S, G100N, A101N, S102W, H103Y, G104S, L106S, Y107F, D108Q, D109F
VL: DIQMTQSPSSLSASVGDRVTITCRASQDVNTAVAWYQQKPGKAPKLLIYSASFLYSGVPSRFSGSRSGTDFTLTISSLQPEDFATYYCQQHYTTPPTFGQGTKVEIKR
B6: De novo trastuzumab HCDR3 variant ARYHYRTIGSFGY (SEQ ID NO: 487) (Fab, V domains shown)
VH: EVQLVESGGGLVQPGGSLRLSCAASGFNIKDTYIHWVRQAPGKGLEWVARIYPTNGYTRYADSVKGRFTISADTSKNTAYLQMNSLRAEDTAVYYCARYHYRTIGSFGYWGQGTLVTVSS
VL: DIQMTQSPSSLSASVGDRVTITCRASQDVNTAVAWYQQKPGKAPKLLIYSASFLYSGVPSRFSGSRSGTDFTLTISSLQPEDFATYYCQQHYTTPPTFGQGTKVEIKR
B7: De novo trastuzumab HCDR3 variant ATGLSPSGSNGPY (SEQ ID NO: 491) (Fab, V domains shown)
VH: B1 VH with R98T, D99G, Y100L, D101S, F102P, G103S, L104G, V106N, A108P, V109Y
VL: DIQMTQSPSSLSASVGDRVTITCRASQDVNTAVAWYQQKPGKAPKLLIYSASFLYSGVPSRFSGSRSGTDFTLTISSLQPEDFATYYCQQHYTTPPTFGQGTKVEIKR
B8: De novo trastuzumab HCDR3 variant ATSGTASWQHYGV (SEQ ID NO: 481) (Fab, V domains shown)
VH: B3 VH with R98T, L99S, A101T, S102A, H103S, G104W, Y105Q, L106H, D108G, D109V
VL: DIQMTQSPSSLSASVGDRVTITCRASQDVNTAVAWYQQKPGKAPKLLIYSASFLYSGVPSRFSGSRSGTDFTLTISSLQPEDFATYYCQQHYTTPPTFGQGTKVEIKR
B9: De novo trastuzumab HCDR3 variant AWASGYGGYGMDY (SEQ ID NO: 488) (Fab, V domains shown)
VH: B3 VH with R98W, L99A, G100S, A101G, S102Y, H103G, L106G, Y107M, D109Y
VL: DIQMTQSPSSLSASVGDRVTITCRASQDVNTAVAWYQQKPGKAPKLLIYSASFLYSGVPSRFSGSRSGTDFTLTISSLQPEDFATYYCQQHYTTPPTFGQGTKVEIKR
B10: De novo trastuzumab HCDR3 variant AYMGSHTIYSFEH (SEQ ID NO: 479) (Fab, V domains shown)
VH: B6 VH with R98Y, Y99M, H100G, Y101S, R102H, G105Y, G108E, Y109H
VL: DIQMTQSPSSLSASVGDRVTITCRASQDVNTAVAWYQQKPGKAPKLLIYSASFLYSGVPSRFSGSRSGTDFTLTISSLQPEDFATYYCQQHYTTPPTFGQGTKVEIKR
B11: De novo trastuzumab HCDR3 variant VRSGYDYYSWFAY (SEQ ID NO: 492) (Fab, V domains shown)
VH: B6 VH with A97V, Y99S, H100G, R102D, T103Y, I104Y, G105S, S106W, G108A
VL: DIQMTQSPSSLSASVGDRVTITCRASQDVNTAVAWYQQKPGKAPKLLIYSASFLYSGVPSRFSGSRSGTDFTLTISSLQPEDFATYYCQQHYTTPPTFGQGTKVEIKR
B12: De novo trastuzumab HCDR3 variant ARYYGWYYYFDY (SEQ ID NO: 482) (Fab, V domains shown)
VH: EVQLVESGGGLVQPGGSLRLSCAASGFNIKDTYIHWVRQAPGKGLEWVARIYPTNGYTRYADSVKGRFTISADTSKNTAYLQMNSLRAEDTAVYYCARYYGWYYYFDYWGQGTLVTVSS
VL: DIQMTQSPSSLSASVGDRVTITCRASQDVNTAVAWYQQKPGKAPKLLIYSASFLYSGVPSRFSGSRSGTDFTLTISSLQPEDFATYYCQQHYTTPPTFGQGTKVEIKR
B13: De novo trastuzumab HCDR3 variant ARGYGVGASFVY (SEQ ID NO: 496) (Fab, V domains shown)
VH: B12 VH with Y99G, W102V, Y103G, Y104A, Y105S, D107V
VL: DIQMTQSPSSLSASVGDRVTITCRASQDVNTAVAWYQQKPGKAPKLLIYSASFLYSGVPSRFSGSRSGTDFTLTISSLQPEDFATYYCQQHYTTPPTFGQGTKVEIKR
B14: De novo trastuzumab HCDR3 variant ARYHYSGFFMDA (SEQ ID NO: 489) (Fab, V domains shown)
VH: B12 VH with Y100H, G101Y, W102S, Y103G, Y104F, Y105F, F106M, Y108A
VL: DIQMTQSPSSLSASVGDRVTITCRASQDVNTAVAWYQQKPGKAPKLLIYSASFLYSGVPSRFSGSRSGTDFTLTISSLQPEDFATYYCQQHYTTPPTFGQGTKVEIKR
B15: De novo trastuzumab HCDR3 variant ARYLSDSYAWDY (SEQ ID NO: 490) (Fab, V domains shown)
VH: B12 VH with Y100L, G101S, W102D, Y103S, Y105A, F106W
VL: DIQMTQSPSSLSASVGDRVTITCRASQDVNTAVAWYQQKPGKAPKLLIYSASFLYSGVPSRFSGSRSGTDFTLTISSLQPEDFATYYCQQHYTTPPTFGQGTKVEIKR
B16: De novo trastuzumab HCDR3 variant ASDRYGSYSLVS (SEQ ID NO: 480) (Fab, V domains shown)
VH: B12 VH with R98S, Y99D, Y100R, G101Y, W102G, Y103S, Y105S, F106L, D107V, Y108S
VL: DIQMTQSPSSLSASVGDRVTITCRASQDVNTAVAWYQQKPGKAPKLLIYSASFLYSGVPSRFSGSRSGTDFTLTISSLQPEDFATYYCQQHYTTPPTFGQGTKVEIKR
B17: De novo trastuzumab HCDR3 variant ARLYYSSFNGM (SEQ ID NO: 485) (Fab, V domains shown)
VH: EVQLVESGGGLVQPGGSLRLSCAASGFNIKDTYIHWVRQAPGKGLEWVARIYPTNGYTRYADSVKGRFTISADTSKNTAYLQMNSLRAEDTAVYYCARLYYSSFNGMWGQGTLVTVSS
VL: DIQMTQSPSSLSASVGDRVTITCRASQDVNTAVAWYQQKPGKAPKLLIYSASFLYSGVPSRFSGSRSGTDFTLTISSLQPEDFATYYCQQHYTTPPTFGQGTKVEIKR
B18: De novo trastuzumab HCDR3 variant AVEGGTRALEP (SEQ ID NO: 483) (Fab, V domains shown)
VH: B17 VH with R98V, L99E, Y100G, Y101G, S102T, S103R, F104A, N105L, G106E, M107P
VL: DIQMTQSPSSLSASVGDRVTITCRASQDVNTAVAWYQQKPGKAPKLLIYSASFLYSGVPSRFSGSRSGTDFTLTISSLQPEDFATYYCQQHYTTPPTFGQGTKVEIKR
B19: De novo trastuzumab HCDR3 variant TRRDFGYYMAY (SEQ ID NO: 494) (Fab, V domains shown)
VH: B17 VH with A97T, L99R, Y100D, Y101F, S102G, S103Y, F104Y, N105M, G106A, M107Y
VL: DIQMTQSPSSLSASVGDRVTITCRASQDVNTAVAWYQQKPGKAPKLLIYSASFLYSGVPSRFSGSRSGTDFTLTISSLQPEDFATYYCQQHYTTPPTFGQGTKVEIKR
B20: De novo trastuzumab HCDR3 variant ARYAGVERPGSFAY (SEQ ID NO: 43) (Fab, V domains shown)
VH: EVQLVESGGGLVQPGGSLRLSCAASGFNIKDTYIHWVRQAPGKGLEWVARIYPTNGYTRYADSVKGRFTISADTSKNTAYLQMNSLRAEDTAVYYCARYAGVERPGSFAYWGQGTLVTVSS
VL: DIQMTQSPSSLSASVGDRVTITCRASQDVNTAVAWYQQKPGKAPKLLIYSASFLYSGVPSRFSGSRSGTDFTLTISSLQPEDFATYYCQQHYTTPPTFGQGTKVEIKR
B21: De novo trastuzumab HCDR3 variant ARTGWGYDNISGYEY (SEQ ID NO: 497) (Fab, V domains shown)
VH: EVQLVESGGGLVQPGGSLRLSCAASGFNIKDTYIHWVRQAPGKGLEWVARIYPTNGYTRYADSVKGRFTISADTSKNTAYLQMNSLRAEDTAVYYCARTGWGYDNISGYEYWGQGTLVTVSS
VL: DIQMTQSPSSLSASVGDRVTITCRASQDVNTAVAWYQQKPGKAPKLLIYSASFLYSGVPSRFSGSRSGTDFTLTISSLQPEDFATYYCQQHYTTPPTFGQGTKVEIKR
B22: Multi-step trastuzumab HCDR3 variant ARYSSSGGSAFDY (SEQ ID NO: 542) (Fab, V domains shown)
VH: B3 VH with L99Y, G100S, A101S, H103G, Y105S, L106A, Y107F, D109Y
VL: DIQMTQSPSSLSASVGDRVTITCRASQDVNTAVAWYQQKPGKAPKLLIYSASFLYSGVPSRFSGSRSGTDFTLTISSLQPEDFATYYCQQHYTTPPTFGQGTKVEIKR
B23: Multi-step trastuzumab HCDR3 variant ARYSYYGGGAFDY (SEQ ID NO: 543) (Fab, V domains shown)
VH: B6 VH with H100S, R102Y, T103G, I104G, S106A, G108D
VL: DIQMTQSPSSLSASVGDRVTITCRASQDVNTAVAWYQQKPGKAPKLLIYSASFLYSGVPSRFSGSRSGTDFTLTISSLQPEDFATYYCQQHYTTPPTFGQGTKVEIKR
B24: Multi-step trastuzumab HCDR3 variant ARYSYYGGGYFDY (SEQ ID NO: 515) (Fab, V domains shown)
VH: B6 VH with H100S, R102Y, T103G, I104G, S106Y, G108D
VL: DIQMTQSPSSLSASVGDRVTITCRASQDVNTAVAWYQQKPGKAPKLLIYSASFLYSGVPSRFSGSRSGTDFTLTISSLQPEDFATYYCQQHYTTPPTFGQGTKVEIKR
B25: Multi-step trastuzumab HCDR3 variant ARYYGSSSYYFAY (SEQ ID NO: 75) (Fab, V domains shown)
VH: B6 VH with H100Y, Y101G, R102S, T103S, I104S, G105Y, S106Y, G108A
VL: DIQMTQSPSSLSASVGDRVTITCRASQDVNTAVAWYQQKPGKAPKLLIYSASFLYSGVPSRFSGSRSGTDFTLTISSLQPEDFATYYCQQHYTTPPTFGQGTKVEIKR
notes: also called AI Design 9
B26: Multi-step trastuzumab HCDR3 variant ASSGGSSSYSYYY (SEQ ID NO: 513) (Fab, V domains shown)
VH: B3 VH with R98S, L99S, A101G, H103S, G104S, L106S, D108Y, D109Y
VL: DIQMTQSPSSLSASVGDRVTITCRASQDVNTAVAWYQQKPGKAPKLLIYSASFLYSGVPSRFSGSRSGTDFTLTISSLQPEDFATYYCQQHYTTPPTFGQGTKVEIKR
B27: Multi-step trastuzumab HCDR3 variant SRYGYSGYGAFDY (SEQ ID NO: 521) (Fab, V domains shown)
VH: B6 VH with A97S, H100G, R102S, T103G, I104Y, S106A, G108D
VL: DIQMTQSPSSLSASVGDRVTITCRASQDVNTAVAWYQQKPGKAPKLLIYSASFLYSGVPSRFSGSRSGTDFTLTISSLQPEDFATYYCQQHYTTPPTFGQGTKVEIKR
B28: Multi-step trastuzumab HCDR3 variant SRYSYSGGGSFDY (SEQ ID NO: 537) (Fab, V domains shown)
VH: B6 VH with A97S, H100S, R102S, T103G, I104G, G108D
VL: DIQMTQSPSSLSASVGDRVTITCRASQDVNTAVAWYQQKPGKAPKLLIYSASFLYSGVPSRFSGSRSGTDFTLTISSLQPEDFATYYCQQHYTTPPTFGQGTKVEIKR
B29: Multi-step trastuzumab HCDR3 variant TRYGSFGYYALDS (SEQ ID NO: 530) (Fab, V domains shown)
VH: B3 VH with A97T, L99Y, A101S, S102F, H103G, G104Y, L106A, Y107L, D109S
VL: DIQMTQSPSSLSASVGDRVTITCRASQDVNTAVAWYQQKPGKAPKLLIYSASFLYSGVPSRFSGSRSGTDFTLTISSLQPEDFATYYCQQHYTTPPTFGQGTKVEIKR
B30: Multi-step trastuzumab HCDR3 variant TRYSYYGYHAMDY (SEQ ID NO: 549) (Fab, V domains shown)
VH: B6 VH with A97T, H100S, R102Y, T103G, I104Y, G105H, S106A, F107M, G108D
VL: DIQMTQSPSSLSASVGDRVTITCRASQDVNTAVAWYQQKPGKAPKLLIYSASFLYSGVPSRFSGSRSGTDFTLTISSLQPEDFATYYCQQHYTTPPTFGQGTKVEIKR
B31: De novo trastuzumab HCDR1|2|3 variant GFNVSSSY / IYPENGST / SRYSYYGGYAFDY (Fab, V domains shown)
VH: EVQLVESGGGLVQPGGSLRLSCAASGFNVSSSYIHWVRQAPGKGLEWVARIYPENGSTRYADSVKGRFTISADTSKNTAYLQMNSLRAEDTAVYYCSRYSYYGGYAFDYWGQGTLVTVSS
VL: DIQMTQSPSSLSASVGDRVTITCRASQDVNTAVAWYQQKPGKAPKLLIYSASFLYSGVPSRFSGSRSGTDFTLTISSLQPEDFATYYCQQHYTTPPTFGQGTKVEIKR
notes: also called AI Design 1

These binders were tested against T1, human epidermal growth factor receptor 2 (HER2) extracellular domain (human, UniProt P04626 23-629) (assay: SPR, Fab format).
For B1, the Kd was 358 nM and the “log(KD (M))” value was -6.45 log M. B2 was tested, and the Kd was 496 nM and the “log(KD (M))” value was -6.3 log M. For B3, the Kd was 328 nM and the “log(KD (M))” value was -6.48 log M. B4 was tested, and the Kd was 570 nM and the “log(KD (M))” value was -6.24 log M. For B5, the Kd was 278 nM and the “log(KD (M))” value was -6.56 log M. B6 was tested, and the Kd was 367 nM and the “log(KD (M))” value was -6.44 log M. For B7, the Kd was 444 nM and the “log(KD (M))” value was -6.35 log M. B8 was tested, and the Kd was 322 nM and the “log(KD (M))” value was -6.49 log M. In the case of B9, the Kd is reported as 368 nM and the “log(KD (M))” value is reported as -6.43 log M. In the case of B10, the Kd is reported as 301 nM and the “log(KD (M))” value is reported as -6.52 log M. B11 was tested, and the Kd was 465 nM and the “log(KD (M))” value was -6.33 log M. For B12, the Kd was 323 nM and the “log(KD (M))” value was -6.49 log M. With B13 the Kd was 630 nM and the “log(KD (M))” value was -6.2 log M. With B14 the Kd was 433 nM and the “log(KD (M))” value was -6.36 log M. For B15, the Kd was 434 nM and the “log(KD (M))” value was -6.36 log M. With B16 the Kd was 314 nM and the “log(KD (M))” value was -6.5 log M. With B17 the Kd was 339 nM and the “log(KD (M))” value was -6.47 log M. With B18 the Kd was 326 nM and the “log(KD (M))” value was -6.49 log M. With B19 the Kd was 547 nM and the “log(KD (M))” value was -6.26 log M. For B20, the Kd was 574 nM and the “log(KD (M))” value was -6.24 log M. In the case of B21, the Kd is reported as 1460 nM and the “log(KD (M))” value is reported as -5.84 log M.

Molecular target: T1, human epidermal growth factor receptor …
Assay: SPR, Fab format
Remark: another data set of the same source
For B22, the Kd was 1990 nM and the “log(KD (M))” value was -5.7 log M. With B23 the Kd was 191 nM and the “log(KD (M))” value was -6.72 log M. With B24 the Kd was 478 nM and the “log(KD (M))” value was -6.32 log M. In the case of B25, the Kd is reported as 60.6 nM and the “log(KD (M))” value is reported as -7.22 log M. For B26, the Kd was 1720 nM and the “log(KD (M))” value was -5.76 log M. With B27 the Kd was 1050 nM and the “log(KD (M))” value was -5.98 log M. B28 was tested, and the Kd was 362 nM and the “log(KD (M))” value was -6.44 log M. In the case of B29, the Kd is reported as 57.6 nM and the “log(KD (M))” value is reported as -7.24 log M. For B30, the Kd was 354 nM and the “log(KD (M))” value was -6.45 log M. B31 was tested, and the Kd was 225 nM and the “log(KD (M))” value was -6.65 log M.
